Assay [1] deals with T1, full-length mature human EMR2 (residues Q24-N823) with N-terminal aspartic acid/lysine epitope tag, … (human, UniProt Q9UHX3 24-823).
T1 sequence: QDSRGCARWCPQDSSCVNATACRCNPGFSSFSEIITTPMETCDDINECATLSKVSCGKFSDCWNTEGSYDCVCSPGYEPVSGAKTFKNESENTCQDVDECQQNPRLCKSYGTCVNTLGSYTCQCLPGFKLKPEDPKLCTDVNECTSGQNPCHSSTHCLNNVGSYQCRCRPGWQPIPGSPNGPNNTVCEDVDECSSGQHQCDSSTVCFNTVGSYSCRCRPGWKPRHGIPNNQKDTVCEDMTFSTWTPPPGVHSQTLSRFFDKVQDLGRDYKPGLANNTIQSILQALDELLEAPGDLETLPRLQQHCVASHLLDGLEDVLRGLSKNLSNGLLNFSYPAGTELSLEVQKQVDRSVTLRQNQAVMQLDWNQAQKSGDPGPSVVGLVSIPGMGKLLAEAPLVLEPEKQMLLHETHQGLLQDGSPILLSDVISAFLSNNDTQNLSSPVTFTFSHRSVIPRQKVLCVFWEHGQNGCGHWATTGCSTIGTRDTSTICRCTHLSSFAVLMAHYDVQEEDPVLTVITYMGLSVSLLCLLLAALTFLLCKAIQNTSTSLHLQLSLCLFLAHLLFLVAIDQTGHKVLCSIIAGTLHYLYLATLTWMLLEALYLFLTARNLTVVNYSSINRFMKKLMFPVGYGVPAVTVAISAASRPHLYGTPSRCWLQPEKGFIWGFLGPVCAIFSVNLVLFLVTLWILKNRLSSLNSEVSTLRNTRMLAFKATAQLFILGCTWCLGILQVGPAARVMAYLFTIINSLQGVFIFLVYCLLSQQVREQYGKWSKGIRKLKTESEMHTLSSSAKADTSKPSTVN
Put plainly: cell-based or functional assay.

For assay [2], the target named is T2, full-length mature cynomolgus EMR2 (residues Q24-N816) with N-terminal aspartic acid/lysine epitope tag, … (cynomolgus monkey (Macaca fascicularis), UniProt A0A2K5WL23 21-816).
T2 sequence: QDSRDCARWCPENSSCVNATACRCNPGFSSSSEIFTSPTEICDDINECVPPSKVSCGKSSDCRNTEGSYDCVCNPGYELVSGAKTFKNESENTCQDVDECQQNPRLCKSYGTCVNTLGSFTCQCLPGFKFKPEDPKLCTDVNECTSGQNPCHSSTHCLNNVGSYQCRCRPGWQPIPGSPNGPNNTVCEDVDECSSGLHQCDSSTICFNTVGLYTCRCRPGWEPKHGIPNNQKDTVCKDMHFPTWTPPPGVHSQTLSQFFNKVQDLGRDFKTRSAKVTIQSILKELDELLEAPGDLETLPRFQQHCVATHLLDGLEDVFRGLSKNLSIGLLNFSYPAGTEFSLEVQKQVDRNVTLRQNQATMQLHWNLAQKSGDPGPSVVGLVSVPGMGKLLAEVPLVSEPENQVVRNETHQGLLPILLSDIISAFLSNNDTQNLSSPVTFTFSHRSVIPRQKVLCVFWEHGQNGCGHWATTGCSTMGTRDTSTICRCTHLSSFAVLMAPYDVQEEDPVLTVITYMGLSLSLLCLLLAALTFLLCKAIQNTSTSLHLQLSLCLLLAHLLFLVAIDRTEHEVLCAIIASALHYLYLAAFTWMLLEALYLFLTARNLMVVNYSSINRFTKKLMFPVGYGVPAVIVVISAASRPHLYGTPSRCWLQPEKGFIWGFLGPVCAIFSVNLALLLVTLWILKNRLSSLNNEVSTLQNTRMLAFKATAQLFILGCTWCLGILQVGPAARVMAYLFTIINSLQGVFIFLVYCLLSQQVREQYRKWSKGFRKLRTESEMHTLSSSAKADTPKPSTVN
Put plainly: cell-based or functional assay.

Assay [3] addresses T3, full-length mature human CD97 (residues Q21-I845) with N-terminal aspartic acid/lysine epitope tag, … (human, UniProt P48960 21-835).
T3 sequence (looked up): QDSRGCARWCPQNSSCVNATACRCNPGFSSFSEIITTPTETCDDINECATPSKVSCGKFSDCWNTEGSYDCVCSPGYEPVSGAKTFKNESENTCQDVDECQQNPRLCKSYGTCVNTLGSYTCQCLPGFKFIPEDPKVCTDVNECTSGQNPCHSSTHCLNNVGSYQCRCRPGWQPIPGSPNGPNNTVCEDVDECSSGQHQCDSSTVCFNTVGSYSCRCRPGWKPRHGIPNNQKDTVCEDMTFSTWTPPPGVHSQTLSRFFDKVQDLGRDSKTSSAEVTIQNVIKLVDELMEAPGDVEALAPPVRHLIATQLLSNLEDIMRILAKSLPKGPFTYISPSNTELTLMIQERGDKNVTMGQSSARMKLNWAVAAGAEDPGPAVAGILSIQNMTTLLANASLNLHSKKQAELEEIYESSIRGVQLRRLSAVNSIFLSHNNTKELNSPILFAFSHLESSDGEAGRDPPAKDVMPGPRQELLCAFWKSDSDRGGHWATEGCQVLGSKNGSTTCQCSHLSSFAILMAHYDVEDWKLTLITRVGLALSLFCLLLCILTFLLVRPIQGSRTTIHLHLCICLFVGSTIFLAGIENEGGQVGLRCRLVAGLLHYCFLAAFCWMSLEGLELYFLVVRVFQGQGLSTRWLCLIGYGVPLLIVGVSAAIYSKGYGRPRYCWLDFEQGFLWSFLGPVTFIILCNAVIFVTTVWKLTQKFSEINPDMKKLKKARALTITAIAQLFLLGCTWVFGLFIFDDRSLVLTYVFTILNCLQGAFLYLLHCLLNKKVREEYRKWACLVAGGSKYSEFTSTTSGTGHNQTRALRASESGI
Description: cell-based or functional assay.

Assay [4] addresses T1, full-length mature human EMR2 (residues …). Put plainly: flow cytometry on transduced HEK293T; 293 naive MFI 97.1.
Description: (§1) The exemplary antibodies were also tested using flow cytometry to determine their ability to associate with hEMR2, cEMR2 and CD97 expressed on the surface of cells.
For assay [5], the target named is T2, full-length mature cynomolgus EMR2 …. Described as above.
Description: as §1
The target in assay [6] is T3, full-length mature human CD97 (residues …). Described as above.
Description: as §1
Assay [7] has as its target T1, full-length mature human EMR2 (residues …). Description: flow cytometry on transduced HEK293T; 293 naive MFI 97.8. On the technique in general: Flow cytometry measures light scatter and fluorescence of single cells or particles in a stream.
Description: as §1
In assay [8] the target is T2, full-length mature cynomolgus EMR2 …. Described as above.
Description: as §1
Assay [9] concerns the target T3, full-length mature human CD97 (residues …). The assay is described as above.
Description: as §1
Assay [10] concerns the target T1, full-length mature human EMR2 (residues …). Description: cell-based or functional assay. The source holds these as a separate data set.
For assay [11], the target named is T3, full-length mature human CD97 (residues …). Put plainly: cell-based or functional assay. The source holds these as a separate data set.
Assay [12] concerns the target T1, full-length mature human EMR2 (residues …). Description: flow cytometry on transduced HEK293T; 293 naive MFI 326.
Description: as §1
For assay [13], the target named is T2, full-length mature cynomolgus EMR2 …. Described as above.
Description: as §1
In assay [14] the target is T3, full-length mature human CD97 (residues …). The description is as above.
Description: as §1

The values that follow come from patent publication US20180327506A1 (AbbVie / Abbott, published 2018).

Where two headings read alike, the source gives them in different places.

B1: SC93.243 (antibody, IgG2b, V domains shown)
VH: QVQLQQSGAELMKPGASVKISCKATGYTFSSYWIEWVKQRPGHGLEWIGEILPGSGRTNYNERLKGKATFTADTSSNTAYMQLSSLTSEDSAVYYCARPYFYGSNFDFWGQGTTLTVSS
VL: DIVMTQSHKFMSTSVGDRVSITCKASQDVGTAVAWYQQKPGQSPKLLIYWASTRHTGVPDRFTGSGSGTDFTLTISNVQSEDLADYFCQQYSSYHTFGGGTKLEIK
notes: murine, IgG2b
For B1, the “% live, FAB-saporin killing assay” value in [1] is 68.7%; in assay [2], 20.8%; in assay [3] it was 91.9%. In addition, the results for the “FC MFI” value in assay [4], in assay [5] and in assay [6] were 42700, 65800 and 8140, respectively.

B2: SC93.239 (antibody, V domains shown)
VH: LVQLQQSGVELARPGASVKLSCKASGYIFTSYGISWVKQRTGQGLEWIGNIYPRTGNTYYNEKFKDKATLTADKSSNTAYMELRSLTSEDSAVYFCARGTHYDPLDYWGQGTTLTVSS
VL: ENVLTQSPAIMSASPGEKVTMTCRASSSVSSSDLHWYQQKSGASPKLWIYSTSNLASGVPARFSGSGSGASCSLTISSVEAEDAATYYCHQYSGYPWTFGGGTKLEIK
notes: Murine hybridoma antibody with a kappa light chain; also called clone SC93.239; SC93.239 (Bin A)
B2: the “% live, FAB-saporin killing assay” value in assay [1] came to 16.8%; in [2] it was 16.7%; in assay [3], 106%. The “FC MFI” value in assay [7] is 71100; in assay [8], 76700; in [9], 925.

B3: SC93.15 (antibody, IgG1, V domains shown)
VH: EVQLQQSGPELVKPGASVKISCKGSGYTFTDYFMNWVKLSHGKSLEWIGEINPNNGGTNYNQKFKGKATLTVDKSSSIAYMELRSLTSEDSAVYYCARPGTNYWGPGTTLTVSS
VL: DIVMTQSHKFMSTSVGDRVSITCKASQNVGTSVAWYQQKPGHSPKLLIYWASTRHTGVPDRFTGSGSGTDFSLTISSVQSEDLTDYFCQQYSSYPLTFGGGTKLEIK
For B3, the “% live, FAB-saporin killing assay” value stood at 15% in assay [10] and 99.5% in assay [11].

B4: SC93.252 (antibody, IgG2a, V domains shown)
VH: QVQLQQSDAELVKPGASVKISCKVSGFSFTDHTIHWMRQRPEQGLEWIGYIYPTDGNTRYNEKFKGKASLTADKSSTTAYMQLSSLTSEDSAVYFCAKRGYYWYFDVWGTGTTVTVSS
VL: DIQMTQASSYLSVSLGGRVTITCKASDHINNWLAWYQQKPGNAPRLLISHATNLETGFPSRFSGSGSGKDYTLSITSLQTEDVATYYCQQYWNIPYTFGGGTKLEIE
notes: murine, IgG2a
On to B4, for which the “% live, FAB-saporin killing assay” value in assay [1] was found to be 10.8%; in [2], 9.42%; in assay [3], 9.09%. Also, the figures for the “FC MFI” value in assay [12], in [13] and in assay [14] were 40500, 45200 and 43800, respectively.

B5: SC93.216 (antibody, IgG1, V domains shown)
VH: EVQLVESGGGLVKPGGSLKLSCAASGFTFSSYGMSWVRQTPEKRLEWVAAIHSNGDITYYPDTVKGRFTISRDNAKNTLYLQMSSLTSEDTALYYCANLAYWGQGTLVTVSA
VL: EIQMTQSPSSMSASLGDRITITCQATQDIVKNLNWYQQKPGKSPSSLIYYATELAEGVPSRFSGSGSGSDYSLTISNLESEDFADYYCLQFYEFPLTFGAGTKLELK
B5: the “% live, FAB-saporin killing assay” value is 102% in assay [10] and 107% in assay [11].
